These results are taken from patent publication US20200079844A1 (Ablynx, published 2020).

Assay [1] deals with T1, mouse serum albumin (mouse, UniProt P07724 25-608).
T1 construct: On the Biacore chip; also called mouse albumin

Assay [2] addresses T2, rhesus serum albumin (rhesus, UniProt Q28522 17-600).
T2 construct: On the Biacore chip; also called rhesus albumin

Assay [3] addresses T3, human serum albumin (human, UniProt P02768 25-609).
T3 construct: On the Biacore chip; also called human albumin

For assay [4], the target named is Protein A (UniProt P38507 37-477).
The target in assay [5] is T1, mouse serum albumin. The source holds these as a separate data set.
Assay [6] addresses T4, human TNFα (human, UniProt P01375 77-233). As to the kind of experiment: cell-based or functional assay.
Assay [7] concerns the target T5, rhesus TNFα (rhesus, UniProt P48094 77-233). Put plainly: cell-based or functional assay.
The target in assay [8] is T4, human TNFα. Put plainly: cell-based or functional assay. This is another data set of the same source.
For assay [9], the target named is T4, human TNFα.
Assay [10] concerns the target T4, human TNFα. This is another data set of the same source.
In assay [11] the target is T4, human TNFα. This is another data set of the same source.
Assay [12] addresses T4, human TNFα. As to the kind of experiment: cell-based or functional assay. This is another data set of the same source.
The target in assay [13] is T4, human TNFα. The source holds these as a separate data set.
Assay [14] concerns the target T4, human TNFα. As to the kind of experiment: ELISA, biotinylated TNFα on neutravidin, anti-myc detection; 50% binding. A general note: ELISA stands for enzyme-linked immunosorbent assay.
In assay [15] the target is T4, human TNFα. Put plainly: cell-based or functional assay. This is another data set of the same source.
The target of assay [16] is T4, human TNFα. Put plainly: competition ELISA, biotinylated TNFα (10 ng/ml) pre-incubated with nanobody, binding to coated Enbrel; 50% inhibition.
For assay [17], the target named is T4, human TNFα. As to the kind of experiment: competition ELISA, biotinylated human TNFα pre-incubated with nanobody, binding to coated Enbrel; 50% inhibition.
Assay [18] concerns the target T4, human TNFα. Put plainly: cell-based or functional assay. This is another data set of the same source.
The target in assay [19] is T5, rhesus TNFα. As to the kind of experiment: cell-based or functional assay. The source holds these as a separate data set.

Like-named read-outs stand apart in the source and are kept apart here.

T5 sequence (P48094 77-233 limits assumed): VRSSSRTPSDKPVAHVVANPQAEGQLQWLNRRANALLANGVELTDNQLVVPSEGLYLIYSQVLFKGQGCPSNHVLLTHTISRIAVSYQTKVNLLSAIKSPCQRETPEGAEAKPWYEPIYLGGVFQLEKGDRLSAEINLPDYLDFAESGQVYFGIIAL
T2 sequence (Q28522 17-600 limits assumed): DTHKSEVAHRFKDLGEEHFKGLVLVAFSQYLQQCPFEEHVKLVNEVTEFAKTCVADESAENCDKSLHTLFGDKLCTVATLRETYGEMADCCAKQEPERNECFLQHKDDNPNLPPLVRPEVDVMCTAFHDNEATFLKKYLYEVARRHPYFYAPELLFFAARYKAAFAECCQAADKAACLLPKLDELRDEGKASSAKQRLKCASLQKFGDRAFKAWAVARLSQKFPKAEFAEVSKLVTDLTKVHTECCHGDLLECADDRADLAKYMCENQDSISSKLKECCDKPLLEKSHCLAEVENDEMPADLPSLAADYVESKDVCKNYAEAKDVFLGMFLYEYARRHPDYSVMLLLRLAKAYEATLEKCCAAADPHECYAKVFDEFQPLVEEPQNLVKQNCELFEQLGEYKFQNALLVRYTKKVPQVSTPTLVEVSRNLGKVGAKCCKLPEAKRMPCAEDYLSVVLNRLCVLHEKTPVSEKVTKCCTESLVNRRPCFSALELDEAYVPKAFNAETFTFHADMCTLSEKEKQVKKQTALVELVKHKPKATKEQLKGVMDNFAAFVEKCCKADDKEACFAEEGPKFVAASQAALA
T4 sequence (P01375 77-233 limits assumed): as the sequence (P48094 77-233 limits assumed) above, with T44R, N72T, L138R counted along it
T1 sequence (P07724 25-608 limits assumed): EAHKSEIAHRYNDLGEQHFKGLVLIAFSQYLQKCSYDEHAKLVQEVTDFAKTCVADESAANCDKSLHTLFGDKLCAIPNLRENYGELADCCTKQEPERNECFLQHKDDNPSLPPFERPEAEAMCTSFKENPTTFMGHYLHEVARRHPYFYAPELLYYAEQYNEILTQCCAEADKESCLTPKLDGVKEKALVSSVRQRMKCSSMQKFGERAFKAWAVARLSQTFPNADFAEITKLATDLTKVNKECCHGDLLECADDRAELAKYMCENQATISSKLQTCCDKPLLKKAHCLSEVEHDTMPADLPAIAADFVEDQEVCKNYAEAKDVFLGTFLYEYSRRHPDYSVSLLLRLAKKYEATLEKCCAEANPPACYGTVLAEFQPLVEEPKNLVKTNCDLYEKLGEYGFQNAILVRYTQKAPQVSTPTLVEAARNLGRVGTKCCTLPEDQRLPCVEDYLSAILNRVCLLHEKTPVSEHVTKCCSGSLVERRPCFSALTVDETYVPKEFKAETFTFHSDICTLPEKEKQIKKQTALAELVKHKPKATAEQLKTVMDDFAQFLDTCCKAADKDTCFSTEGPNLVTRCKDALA

B1: PMP6A8 (ALB2) (VHH)
VHH: AVQLVESGGGLVQGGGSLRLACAASERIFDLNLMGWYRQGPGNERELVATCITVGDSTNYADSVKGRFTISMDYTKQTVYLHMNSLRPEDTGLYYCKIRRTWHSELWGQGTQVTVSS
notes: Class C serum albumin nanobody; not shown: C-terminal c-myc tag and (His)6 tag coded by vector pAX051
Consider B1, for which, in assay [1], the Kd is 15.7 nM, the koff stood at 0.00307 s⁻¹ and the kon is 195000 M⁻¹ s⁻¹. In [2], this molecule displayed an equilibrium dissociation constant (Kd) of 0.036 nM, an off-rate (koff) of 7.12e-05 s⁻¹ and a kon of 1.94e+06 M⁻¹ s⁻¹. In assay [3], this molecule displayed a Kd of 0.092 nM, a koff of 7.52e-05 s⁻¹ and a kon of 815000 M⁻¹ s⁻¹. The binding result in assay [4] is on record as “no binding (tested: 10 uM)”. Further, in assay [5], the “difference in affinity for human/rhesus versus mouse serum albumin” value stood at 400 fold.

B2: PMP1G5 (TNF2) (VHH)
VHH: QVQLVESGGGLVQAGGSLRLSCAASGRTFSEPSGYTYTIGWFRQAPGKEREFVARIYWSSGLTYYADSVKGRFTISRDIAKNTVDLLMNSLKPEDTAVYYCAARDGIPTSRSVGSYNYWGQGTQVTVSS
notes: also called WT TNF2; not shown: C-terminal c-myc tag and (His)6 tag coded by vector pAX051
In the case of B2, the “EC50 in nM (mean); L929s + Act D cytotoxicity assay, human TNFα @ 0.5 ng/ml” value in assay [6] amounted to 1.41 nM. The “EC50 in nM (mean); L929s + Act D cytotoxicity assay, rhesus TNFα @ 0.5 ng/ml” value in assay [7] was more than 50 nM. The “EC50 in nM (mean); L929s + Act D cytotoxicity assay, human TNFa @ 0.5 ng/ml” value (“EC50 in nM (mean) … human TNFa @ 0.5 ng/ml” below) in [8] and in [12] was 1.41 nM in each case. For the same molecule, the off-rate (koff) in assay [9] was determined as 0.000359 s⁻¹; in [10] it was 0.00133 s⁻¹; in assay [11], 0.00083 s⁻¹; in assay [13], 0.00085 s⁻¹. In assay [14], this molecule returned a concentration for a half-maximal effect (EC50) of 0.02 µg/mL. Moreover, in [15], the “EC50 in nM; alphaKYM cell assay (10000 c/w), human TNFa @ 1 ng/ml” value (“EC50 in nM; alphaKYM cell assay” below) is 4.24 nM. Also, the IC50 in assay [16] worked out at 3.5 µg/mL.

B3: TNF2-GS9-TNF2 (TNF5) (VHH)
chain: QVQLVESGGGLVQAGGSLRLSCAASGRTFSEPSGYTYTIGWFRQAPGKEREFVARIYWSSGLTYYADSVKGRFTISRDIAKNTVDLLMNSLKPEDTAVYYCAARDGIPTSRSVGSYNYWGQGTQVTVSSGGGGSGGGSQVQLVESGGGLVQAGGSLRLSCAASGRTFSEPSGYTYTIGWFRQAPGKEREFVARIYWSSGLTYYADSVKGRFTISRDIAKNTVDLLMNSLKPEDTAVYYCAARDGIPTSRSVGSYNYWGQGTQVTVSS
notes: Bivalent nanobody, 9 AA GlySer linker
Consider B3, for which the IC50 in assay [17] was 0.0063 µg/mL. For the same molecule, the “EC50 in nM (mean) … human TNFa @ 0.5 ng/ml” value in assay [18] came out at 0.02 nM. The “EC50 in nM (mean); L929s + Act D cytotoxicity assay, rhesus TNFa @ 0.5 ng/ml” value in assay [19] was determined as 35 nM. The “EC50 in nM; alphaKYM cell assay” value in assay [15] came to 0.008 nM.

B4: TNF2-GS30-TNF2 (TNF8) (VHH)
chain: QVQLVESGGGLVQAGGSLRLSCAASGRTFSEPSGYTYTIGWFRQAPGKEREFVARIYWSSGLTYYADSVKGRFTISRDIAKNTVDLLMNSLKPEDTAVYYCAARDGIPTSRSVGSYNYWGQGTQVTVSSGGGGSGGGGSGGGGSGGGGSGGGGSGGGGSQVQLVESGGGLVQAGGSLRLSCAASGRTFSEPSGYTYTIGWFRQAPGKEREFVARIYWSSGLTYYADSVKGRFTISRDIAKNTVDLLMNSLKPEDTAVYYCAARDGIPTSRSVGSYNYWGQGTQVTVSS
notes: Bivalent nanobody, 30 AA GlySer linker
On to B4, for which the half-inhibitory concentration (IC50) in assay [17] was 0.023 µg/mL. Also, the “EC50 in nM (mean) … human TNFa @ 0.5 ng/ml” value in assay [18] came out at 0.007 nM. Moreover, the “EC50 in nM (mean); L929s + Act D cytotoxicity assay, rhesus TNFa @ 0.5 ng/ml” value in [19] came out at 1.03 nM. Moreover, the “EC50 in nM; alphaKYM cell assay” value in assay [15] stood at 0.013 nM.

Usually Kd stands for the concentration at which binding is half-saturated. Higher therefore signals a looser complex. As usually defined, the koff is the first-order rate constant of dissociation. A high value points to a short-lived complex. In general, kon refers to a measure of how fast the partners come together. The term EC50 denotes the concentration needed to bring the measured effect to its halfway point. High values mean a need for much substance, low ones an effect from little substance. As usually defined, the IC50 is the concentration that inhibits the measured activity by half.
